Results published in patent publication EP4775226A1, “ANTIBODY DRUG CONJUGATE TARGETING GPC3 AND USE THEREOF” (priority 2023, dated 2025).

Legend:
[1] = molecular target: T1, human GPC3 (Glypican-3) (human, UniProt P51654 25-580); experiment: FACS on Huh-7 cells
T1 construct: whole, on cells; The cell line of each value is named under assay

[2] = molecular target: T1, human GPC3 (Glypican-3); experiment: FACS on HepG2 cells
[3] = molecular target: T1, human GPC3 (Glypican-3); experiment: FACS on GPC3-CHO-K1 cells (CHO-K1 overexpressing human GPC3)
[4] = molecular target: T1, human GPC3 (Glypican-3); experiment: FACS on Huh7 liver cancer cells
[5] = molecular target: T1, human GPC3 (Glypican-3); experiment: cell-based or functional assay
[6] = molecular target: T1, human GPC3 (Glypican-3); experiment: cell-based or functional assay; remark: listed apart in the source
[7] = molecular target: T1, human GPC3 (Glypican-3); experiment: cell-based or functional assay; remark: listed apart in the source

T1 sequence (P51654 25-580, form in doubt): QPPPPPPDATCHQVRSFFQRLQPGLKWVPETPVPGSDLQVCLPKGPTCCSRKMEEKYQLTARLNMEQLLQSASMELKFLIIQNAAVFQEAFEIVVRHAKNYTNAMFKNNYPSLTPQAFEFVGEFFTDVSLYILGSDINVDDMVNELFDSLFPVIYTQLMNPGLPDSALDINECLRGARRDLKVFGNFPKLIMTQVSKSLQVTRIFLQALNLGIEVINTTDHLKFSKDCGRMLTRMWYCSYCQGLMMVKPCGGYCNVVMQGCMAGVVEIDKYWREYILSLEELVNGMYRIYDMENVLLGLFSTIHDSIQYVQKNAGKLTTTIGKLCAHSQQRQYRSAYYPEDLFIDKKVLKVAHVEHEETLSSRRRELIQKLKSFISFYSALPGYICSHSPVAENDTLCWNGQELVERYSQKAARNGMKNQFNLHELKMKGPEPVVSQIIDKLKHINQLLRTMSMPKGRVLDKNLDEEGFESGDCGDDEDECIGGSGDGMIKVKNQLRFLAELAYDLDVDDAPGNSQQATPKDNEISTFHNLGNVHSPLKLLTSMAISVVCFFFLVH

EC50 [1] | EC50 [2] | EC50 [3] | EC50 [4] | Endocytosis on HepG2 cells, EC50 (pHAb dye-labelled secondary antibody) [5] | Endocytosis on HepG2 cells, Top [5] | Percentage reduction of GPC3 on cell surface (%), Huh7 cells, 0.5 h [6] | Percentage reduction of GPC3 on cell surface (%), Huh7 cells, 1 h [6] | Percentage reduction of GPC3 on cell surface (%), Huh7 cells, 2 h [6] | Binder | EC50 value of cell killing activity in Huh7 cells [7]
953 pM | 745 pM | 956 pM | – | – | – | – | – | – | GC33 antibody (Chugai Pharmaceutical) (antibody, V domains shown, Control antibody; preparation described in US 7919086 B2; detected with anti-human IgG) VH: QVQLVQSGAEVKKPGASVKVSCKASGYTFTDYEMHWVRQAPGQGLEWMGALDPKTGDTAYSQKFKGRVTLTADKSTSTAYMELSSLTSEDTAVYYCTRFYSYTYWGQGTLVTVSS VL: DVVMTQSPLSLPVTPGEPASISCRSSQSLVHSNGNTYLHWYLQKPGQSPQLLIYKVSNRFSGVPDRFSGSGSGTDFTLKISRVEAEDVGVYYCSQNTHVPPTFGQGTKLEIK | –
418 pM | 351 pM | 411 pM | 0.0569 µg/mL | 0.78 µg/mL | 62400 | 18.6% | 37.1% | 52.8% | Hu 52H5D3B8-8 (antibody, human IgG1, kappa, V domains shown, also called humanized GPC3 antibody Hu 52H5D3B8-8; GPC3 antibody) VH: EVQLVQSGAEVKKPGASVKVSCKASGYTFTDYEMHWVRQAPGQGLEWMGAIHPGSGGTAYNQKFKGRVTMTADKSISTAYMELSRLRSDDTAVYYCTRFYSYAYWGQGTLVTVSS VL: DVVMTQTPLSLSVTPGQPASISCRSSQSLVHSNGNTYLQWYLQKPGQSPQLLIYKVSNRFSGVPDRFSGSGSGTDFTLKISRVEAEDVGVYFCSQSIHVPYTFGGGTKVEIKR | –
– | – | – | – | – | – | – | – | – | Hu 52H5D3B8-8-mcc-AAQ-Exatecan (ADC-6) (antibody, human IgG1, kappa, DAR 4.0, V domains shown, mcc-AAQ-Exatecan on cysteine thiols freed by partial reduction of interchain disulfide bonds; DAR 4.0 for the whole antibody; positions not given) VH: EVQLVQSGAEVKKPGASVKVSCKASGYTFTDYEMHWVRQAPGQGLEWMGAIHPGSGGTAYNQKFKGRVTMTADKSISTAYMELSRLRSDDTAVYYCTRFYSYAYWGQGTLVTVSS VL: DVVMTQTPLSLSVTPGQPASISCRSSQSLVHSNGNTYLQWYLQKPGQSPQLLIYKVSNRFSGVPDRFSGSGSGTDFTLKISRVEAEDVGVYFCSQSIHVPYTFGGGTKVEIKR | 0.0307 µg/mL
667 pM | 611 pM | 907 pM | – | 1.11 µg/mL | 52200 | – | – | – | Y035 CDRs with Hu 52H5D3B8-7 FRs (antibody, V domains shown, detected with anti-human IgG) VH: EVQLVQSGAEVKKPGASVKVSCKASGYTFTDYEMHWVRQAPGQGLEWMGAIHPGSGDTAYNQRFKGRVTMTADKSISTAYMELSRLRSDDTAVYYCTRFYSYAYWGQGTLVTVSS VL: DVVMTQTPLSLSVTPGQPASISCRSSQSLVHSNGNTYLQWYLQKPGQSPQLLIYKVSNRFSGVPDRFSGSGSGTDFTLKISRVEAEDVGVYYCSQSIYVPYTFGGGTKVEIK | –
– | – | – | – | – | – | – | – | – | Hu 52H5D3B8-7-mcc-AAQ-Exatecan (ADC-7) (antibody, human IgG1, kappa, DAR 4.0, V domains shown, mcc-AAQ-Exatecan on cysteine thiols freed by partial reduction of interchain disulfide bonds; DAR 4.0 for the whole antibody; positions not given) VH: EVQLVQSGAEVKKPGASVKVSCKASGYTFTDYEMHWVRQAPGQGLEWMGAIHPGSGGTAYNQKFKGRVTMTADKSISTAYMELSRLRSDDTAVYYCTRFYSYAYWGQGTLVTVSS VL: DVVMTQTPLSLSVTPGQPASISCRSSQSLVHSNGNTYLQWYLQKPGQSPQLLIYKVSNRFSGVPDRFSGSGSGTDFTLKISRVEAEDVGVYYCSQSIHVPYTFGGGTKVEIKR | 0.0279 µg/mL
– | – | – | 0.0633 µg/mL | – | – | 20% | 32.8% | 50.1% | Hu 52H5D3B8-8-mc-AAQ-Exatecan (ADC-3) (antibody, human IgG1, kappa, DAR 8.0, V domains shown, mc-AAQ-Exatecan on cysteine thiols freed by reduction of interchain disulfide bonds; DAR 8.0 for the whole antibody; positions not given, also called Hu 52H5D3B8-8-MC-AAQ-Exa (ADC-3)) VH: EVQLVQSGAEVKKPGASVKVSCKASGYTFTDYEMHWVRQAPGQGLEWMGAIHPGSGGTAYNQKFKGRVTMTADKSISTAYMELSRLRSDDTAVYYCTRFYSYAYWGQGTLVTVSS VL: DVVMTQTPLSLSVTPGQPASISCRSSQSLVHSNGNTYLQWYLQKPGQSPQLLIYKVSNRFSGVPDRFSGSGSGTDFTLKISRVEAEDVGVYFCSQSIHVPYTFGGGTKVEIKR | 0.0119 µg/mL
– | – | – | – | – | – | – | – | – | Hu 52H5D3B8-8-MCC-AA-(3-cyano-L-alanine)-Exatecan (ADC-8) (antibody, human IgG1, kappa, DAR 8.0, V domains shown, mcc-Ala-Ala-(3-cyano-L-alanine)-Exatecan on cysteine thiols freed by reduction of interchain disulfide bonds; DAR 8.0 for the whole antibody; positions not given) VH: EVQLVQSGAEVKKPGASVKVSCKASGYTFTDYEMHWVRQAPGQGLEWMGAIHPGSGGTAYNQKFKGRVTMTADKSISTAYMELSRLRSDDTAVYYCTRFYSYAYWGQGTLVTVSS VL: DVVMTQTPLSLSVTPGQPASISCRSSQSLVHSNGNTYLQWYLQKPGQSPQLLIYKVSNRFSGVPDRFSGSGSGTDFTLKISRVEAEDVGVYFCSQSIHVPYTFGGGTKVEIKR | 0.00734 µg/mL
– | – | – | – | – | – | – | – | – | Hu 52H5D3B8-8-MCC-AAAAQ-Exatecan (ADC-9) (antibody, human IgG1, kappa, DAR 8.0, V domains shown, mcc-Ala-Ala-Ala-Ala-Gln-Exatecan on cysteine thiols freed by reduction of interchain disulfide bonds; DAR 8.0 for the whole antibody; positions not given) VH: EVQLVQSGAEVKKPGASVKVSCKASGYTFTDYEMHWVRQAPGQGLEWMGAIHPGSGGTAYNQKFKGRVTMTADKSISTAYMELSRLRSDDTAVYYCTRFYSYAYWGQGTLVTVSS VL: DVVMTQTPLSLSVTPGQPASISCRSSQSLVHSNGNTYLQWYLQKPGQSPQLLIYKVSNRFSGVPDRFSGSGSGTDFTLKISRVEAEDVGVYFCSQSIHVPYTFGGGTKVEIKR | 0.00478 µg/mL
– | – | – | 0.0673 µg/mL | – | – | 17.9% | 32.9% | 52.2% | Hu 52H5D3B8-8-mc-AAN-Exatecan (ADC-1) (antibody, human IgG1, kappa, DAR 8.0, V domains shown, mc-AAN-Exatecan on cysteine thiols freed by reduction of interchain disulfide bonds; DAR 8.0 for the whole antibody; positions not given, also called Hu 52H5D3B8-8-MC-AAN-Exa (ADC-1)) VH: EVQLVQSGAEVKKPGASVKVSCKASGYTFTDYEMHWVRQAPGQGLEWMGAIHPGSGGTAYNQKFKGRVTMTADKSISTAYMELSRLRSDDTAVYYCTRFYSYAYWGQGTLVTVSS VL: DVVMTQTPLSLSVTPGQPASISCRSSQSLVHSNGNTYLQWYLQKPGQSPQLLIYKVSNRFSGVPDRFSGSGSGTDFTLKISRVEAEDVGVYFCSQSIHVPYTFGGGTKVEIKR | 0.00359 µg/mL
– | – | – | 0.0675 µg/mL | – | – | 18.9% | 36.2% | 50.2% | Hu 52H5D3B8-8-mcc-AAQ-Exatecan (ADC-4) (antibody, human IgG1, kappa, DAR 8.0, V domains shown, mcc-AAQ-Exatecan on cysteine thiols freed by reduction of interchain disulfide bonds; DAR 8.0 for the whole antibody; positions not given, also called Hu 52H5D3B8-8-MCC-AAQ-Exa (ADC-4)) VH: EVQLVQSGAEVKKPGASVKVSCKASGYTFTDYEMHWVRQAPGQGLEWMGAIHPGSGGTAYNQKFKGRVTMTADKSISTAYMELSRLRSDDTAVYYCTRFYSYAYWGQGTLVTVSS VL: DVVMTQTPLSLSVTPGQPASISCRSSQSLVHSNGNTYLQWYLQKPGQSPQLLIYKVSNRFSGVPDRFSGSGSGTDFTLKISRVEAEDVGVYFCSQSIHVPYTFGGGTKVEIKR | 0.0149 µg/mL
– | – | – | – | – | – | – | – | – | Hu 52H5D3B8-7-mcc-AAQ-Exatecan (ADC-5) (antibody, human IgG1, kappa, DAR 7.9, V domains shown, mcc-AAQ-Exatecan on cysteine thiols freed by reduction of interchain disulfide bonds; DAR 7.9 for the whole antibody; positions not given) VH: EVQLVQSGAEVKKPGASVKVSCKASGYTFTDYEMHWVRQAPGQGLEWMGAIHPGSGGTAYNQKFKGRVTMTADKSISTAYMELSRLRSDDTAVYYCTRFYSYAYWGQGTLVTVSS VL: DVVMTQTPLSLSVTPGQPASISCRSSQSLVHSNGNTYLQWYLQKPGQSPQLLIYKVSNRFSGVPDRFSGSGSGTDFTLKISRVEAEDVGVYYCSQSIHVPYTFGGGTKVEIKR | 0.0164 µg/mL
– | – | – | 0.061 µg/mL | – | – | 20.5% | 38.2% | 52.2% | Hu 52H5D3B8-8-mcc-AAN-Exatecan (ADC-2) (antibody, human IgG1, kappa, DAR 8.0, V domains shown, mcc-AAN-Exatecan on cysteine thiols freed by reduction of interchain disulfide bonds; DAR 8.0 for the whole antibody; positions not given, also called Hu 52H5D3B8-8-MCC-AAN-Exa (ADC-2)) VH: EVQLVQSGAEVKKPGASVKVSCKASGYTFTDYEMHWVRQAPGQGLEWMGAIHPGSGGTAYNQKFKGRVTMTADKSISTAYMELSRLRSDDTAVYYCTRFYSYAYWGQGTLVTVSS VL: DVVMTQTPLSLSVTPGQPASISCRSSQSLVHSNGNTYLQWYLQKPGQSPQLLIYKVSNRFSGVPDRFSGSGSGTDFTLKISRVEAEDVGVYFCSQSIHVPYTFGGGTKVEIKR | 0.00939 µg/mL
464 pM | 405 pM | 446 pM | – | 0.72 µg/mL | 58600 | – | – | – | Hu 52H5D3B8-7 (antibody, human IgG1, kappa, V domains shown, also called humanized GPC3 antibody Hu 52H5D3B8-7) VH: EVQLVQSGAEVKKPGASVKVSCKASGYTFTDYEMHWVRQAPGQGLEWMGAIHPGSGGTAYNQKFKGRVTMTADKSISTAYMELSRLRSDDTAVYYCTRFYSYAYWGQGTLVTVSS VL: DVVMTQTPLSLSVTPGQPASISCRSSQSLVHSNGNTYLQWYLQKPGQSPQLLIYKVSNRFSGVPDRFSGSGSGTDFTLKISRVEAEDVGVYYCSQSIHVPYTFGGGTKVEIKR | –
